Reference: article PMC9985635

Target: p65 (UniProt Q04206)
Assay: co-immunoprecipitation, immunoblot
Details: reference: wild-type RB; sites S249,T252

binding against the reference: weaker
Substance: RB (retinoblastoma protein) (from UniProt P06400) RB S249A/T252A
